According to the supplement of paper PMC6379048:

Assays:
GPATCH3 = target: T1, GPATCH3 (UniProt Q96I76); assay: EC50 of free RNA motif oligo competing protein binding to immobilised probe
T1 sequence: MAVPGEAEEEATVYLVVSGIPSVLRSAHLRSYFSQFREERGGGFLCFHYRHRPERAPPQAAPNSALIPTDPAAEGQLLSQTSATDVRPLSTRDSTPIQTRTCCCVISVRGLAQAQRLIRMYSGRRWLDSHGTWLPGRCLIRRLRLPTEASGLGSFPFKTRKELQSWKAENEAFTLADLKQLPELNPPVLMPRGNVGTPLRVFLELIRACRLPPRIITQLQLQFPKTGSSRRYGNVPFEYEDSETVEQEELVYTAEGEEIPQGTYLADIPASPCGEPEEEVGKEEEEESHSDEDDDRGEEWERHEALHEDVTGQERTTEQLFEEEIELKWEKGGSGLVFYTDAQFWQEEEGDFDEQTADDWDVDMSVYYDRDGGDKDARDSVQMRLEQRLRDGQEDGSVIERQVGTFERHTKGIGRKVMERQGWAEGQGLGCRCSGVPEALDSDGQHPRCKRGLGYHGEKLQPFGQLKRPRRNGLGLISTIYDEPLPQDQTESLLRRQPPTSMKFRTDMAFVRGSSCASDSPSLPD
Summary of the method: (§1)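 Kd was calculated as EC50, taken from a four-parameter log-logistic fit, multiplied by a protein-dependent depletion factor. The assay used HEK293-FT lysate (2.5 mg protein/well) pre-incubated for 1 h at 4°C with free RNA oligos (0 nM to 30 μM), then incubated for 30 min at 4°C with the matching oligos bound through a 5′-amino-C6 linker to NHS-Sepharose beads. Bound proteins were measured by label-free LC-MS/MS and normalised to the control.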

AQR = target: T2, AQR (UniProt O60306); assay: as above
T2 sequence: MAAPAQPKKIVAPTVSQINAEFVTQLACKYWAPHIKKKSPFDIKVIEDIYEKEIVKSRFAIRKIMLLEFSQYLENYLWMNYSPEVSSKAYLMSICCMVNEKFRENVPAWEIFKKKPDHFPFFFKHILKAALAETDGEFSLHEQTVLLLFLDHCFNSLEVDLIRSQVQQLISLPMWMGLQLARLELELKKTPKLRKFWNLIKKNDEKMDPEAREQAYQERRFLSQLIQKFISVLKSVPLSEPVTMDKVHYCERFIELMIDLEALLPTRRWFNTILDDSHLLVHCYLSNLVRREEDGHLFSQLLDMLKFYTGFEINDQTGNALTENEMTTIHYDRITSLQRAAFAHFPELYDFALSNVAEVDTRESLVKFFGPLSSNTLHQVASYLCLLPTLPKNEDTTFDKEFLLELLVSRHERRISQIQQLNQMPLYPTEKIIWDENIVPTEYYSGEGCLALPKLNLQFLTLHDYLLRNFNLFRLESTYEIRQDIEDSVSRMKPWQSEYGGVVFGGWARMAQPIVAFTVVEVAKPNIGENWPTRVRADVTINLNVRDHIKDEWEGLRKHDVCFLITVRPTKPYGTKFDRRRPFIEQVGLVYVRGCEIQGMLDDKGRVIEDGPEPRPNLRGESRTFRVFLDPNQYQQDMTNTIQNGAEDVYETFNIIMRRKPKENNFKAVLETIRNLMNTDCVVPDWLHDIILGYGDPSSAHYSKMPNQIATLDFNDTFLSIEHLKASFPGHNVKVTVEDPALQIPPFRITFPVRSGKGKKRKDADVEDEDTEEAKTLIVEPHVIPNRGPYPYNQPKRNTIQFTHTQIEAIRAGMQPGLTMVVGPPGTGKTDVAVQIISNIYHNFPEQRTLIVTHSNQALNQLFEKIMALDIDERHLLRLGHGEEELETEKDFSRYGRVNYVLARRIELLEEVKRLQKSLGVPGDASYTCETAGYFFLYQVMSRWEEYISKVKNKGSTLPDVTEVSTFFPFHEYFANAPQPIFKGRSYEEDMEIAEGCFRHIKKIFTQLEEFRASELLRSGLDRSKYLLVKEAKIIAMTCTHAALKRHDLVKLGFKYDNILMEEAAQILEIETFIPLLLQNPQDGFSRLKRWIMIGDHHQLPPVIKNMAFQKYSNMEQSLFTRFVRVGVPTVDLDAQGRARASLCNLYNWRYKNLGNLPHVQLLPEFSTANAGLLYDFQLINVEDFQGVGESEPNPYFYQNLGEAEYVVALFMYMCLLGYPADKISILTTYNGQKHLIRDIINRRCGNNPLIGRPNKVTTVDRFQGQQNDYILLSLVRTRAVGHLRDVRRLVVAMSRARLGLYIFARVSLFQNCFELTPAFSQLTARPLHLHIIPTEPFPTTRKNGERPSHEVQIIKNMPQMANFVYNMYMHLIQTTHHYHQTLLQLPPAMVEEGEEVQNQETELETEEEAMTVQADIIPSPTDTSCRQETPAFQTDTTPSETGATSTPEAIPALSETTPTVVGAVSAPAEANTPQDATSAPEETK
Summary of the method: as §1

ZNF830 = target: T3, ZNF830 (UniProt Q96NB3); assay: Kd (EC50 corrected by depletion factor)
T3 sequence: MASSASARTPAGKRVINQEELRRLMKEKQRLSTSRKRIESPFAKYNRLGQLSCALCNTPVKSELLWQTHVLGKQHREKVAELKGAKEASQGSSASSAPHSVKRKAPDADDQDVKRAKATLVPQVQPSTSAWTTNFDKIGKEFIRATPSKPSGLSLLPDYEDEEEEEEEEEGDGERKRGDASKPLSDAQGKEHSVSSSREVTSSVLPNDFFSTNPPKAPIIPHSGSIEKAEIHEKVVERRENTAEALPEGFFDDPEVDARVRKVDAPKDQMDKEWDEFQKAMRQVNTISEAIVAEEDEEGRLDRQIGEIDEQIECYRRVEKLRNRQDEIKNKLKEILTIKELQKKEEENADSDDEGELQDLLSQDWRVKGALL
Summary of the method: as §1

Sequence	EC50 (GPATCH3) [nM]	EC50 (AQR) [nM]	Kd (ZNF830) [nM]
AAUAAA	884	877	379
UAUUUAU	326	706	228
